Experiment [1] has as its target DivIC. Description: BACTH (bacterial adenylate cyclase-based two-hybrid). As to conditions: T18 fusion: Gp11 or mutant; T25 fusion: DivIC; parent: est. 5500; read off a plot.
The target of experiment [2] is MurG (UniProt Q2FYL5). The description is as above. As to conditions: T18 fusion: Gp11 or mutant; T25 fusion: MurG; parent: est. 5300; read off a plot.

Drawing on publication PMC11237401, this text covers response for 3 substances.

Sequence of UniProt Q2FYL5 (Q2FYL5 whole entry, the tested form may be a part): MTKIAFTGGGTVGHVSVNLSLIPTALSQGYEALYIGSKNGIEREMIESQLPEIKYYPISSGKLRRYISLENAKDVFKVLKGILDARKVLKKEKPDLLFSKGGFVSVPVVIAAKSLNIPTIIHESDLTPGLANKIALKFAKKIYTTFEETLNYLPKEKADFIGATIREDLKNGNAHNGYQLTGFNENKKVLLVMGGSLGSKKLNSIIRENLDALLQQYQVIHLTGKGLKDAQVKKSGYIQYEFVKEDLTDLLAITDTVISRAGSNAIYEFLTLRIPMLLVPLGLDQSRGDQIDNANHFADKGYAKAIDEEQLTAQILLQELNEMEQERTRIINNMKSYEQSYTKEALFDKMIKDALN

In the case of Gp11 A38E, the response in experiment [1] turned out to be 1900 Miller Units; in experiment [2], 150 Miller Units.

For the substance Gp11 G36R, the response in experiment [1] and in experiment [2] was 100 Miller Units each time.

Regarding Gp11 S33L, the figures for the response in experiment [1] and in experiment [2] were 3200 Miller Units and 1600 Miller Units, respectively.
